Laboratory results published in IntAct's records for PubMed 12606577.

What was measured:
par6b_mouse Pard6b = par6b_mouse Pard6b (UniProt Q9JK83)
pak1_human PAK1 = pak1_human PAK1 (UniProt Q13153)
Sequence of pak1_human PAK1 (Q13153 whole entry): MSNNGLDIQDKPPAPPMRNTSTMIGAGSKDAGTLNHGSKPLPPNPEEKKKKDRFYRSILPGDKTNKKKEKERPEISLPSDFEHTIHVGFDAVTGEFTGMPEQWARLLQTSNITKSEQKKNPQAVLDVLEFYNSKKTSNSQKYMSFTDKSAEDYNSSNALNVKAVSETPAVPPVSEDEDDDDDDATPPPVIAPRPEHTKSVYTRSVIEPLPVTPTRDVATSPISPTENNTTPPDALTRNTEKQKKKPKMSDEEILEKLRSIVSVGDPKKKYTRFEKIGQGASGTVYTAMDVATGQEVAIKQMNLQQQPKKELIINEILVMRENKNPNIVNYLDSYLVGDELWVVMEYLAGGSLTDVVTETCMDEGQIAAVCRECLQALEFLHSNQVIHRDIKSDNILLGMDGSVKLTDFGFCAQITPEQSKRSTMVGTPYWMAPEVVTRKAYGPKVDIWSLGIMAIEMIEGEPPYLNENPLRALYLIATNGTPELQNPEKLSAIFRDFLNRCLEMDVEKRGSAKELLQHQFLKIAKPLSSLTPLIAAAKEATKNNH

Sequence of par6b_mouse Pard6b (Q9JK83 whole entry): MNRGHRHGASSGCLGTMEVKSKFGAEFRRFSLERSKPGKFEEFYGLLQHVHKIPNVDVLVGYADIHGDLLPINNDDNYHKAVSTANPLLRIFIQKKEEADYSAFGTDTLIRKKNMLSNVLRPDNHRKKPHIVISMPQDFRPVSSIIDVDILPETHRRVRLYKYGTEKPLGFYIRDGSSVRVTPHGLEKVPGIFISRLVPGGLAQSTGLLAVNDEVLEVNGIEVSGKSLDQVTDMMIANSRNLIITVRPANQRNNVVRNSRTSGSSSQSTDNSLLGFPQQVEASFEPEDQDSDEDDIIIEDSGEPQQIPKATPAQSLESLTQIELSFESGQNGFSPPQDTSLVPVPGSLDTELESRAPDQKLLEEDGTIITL
Sequence of Cell division control protein 42 homolog (Homo sapiens), P60953 D38A (P60953 whole entry D38A): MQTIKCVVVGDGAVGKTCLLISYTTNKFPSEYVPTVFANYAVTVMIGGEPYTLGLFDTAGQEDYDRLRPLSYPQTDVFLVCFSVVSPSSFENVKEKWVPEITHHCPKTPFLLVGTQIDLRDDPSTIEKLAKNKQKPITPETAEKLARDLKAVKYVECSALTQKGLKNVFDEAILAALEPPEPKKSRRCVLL
Sequence of Cell division control protein 42 homolog (Homo sapiens), P60953 Y40K (P60953 whole entry Y40K): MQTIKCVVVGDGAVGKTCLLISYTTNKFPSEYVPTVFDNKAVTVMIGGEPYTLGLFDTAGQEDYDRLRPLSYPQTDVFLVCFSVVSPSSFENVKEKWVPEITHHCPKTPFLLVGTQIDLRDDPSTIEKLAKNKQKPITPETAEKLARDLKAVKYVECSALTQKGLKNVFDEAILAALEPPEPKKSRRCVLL
Sequence of Cell division control protein 42 homolog (Homo sapiens), P60953 F37A (P60953 whole entry F37A): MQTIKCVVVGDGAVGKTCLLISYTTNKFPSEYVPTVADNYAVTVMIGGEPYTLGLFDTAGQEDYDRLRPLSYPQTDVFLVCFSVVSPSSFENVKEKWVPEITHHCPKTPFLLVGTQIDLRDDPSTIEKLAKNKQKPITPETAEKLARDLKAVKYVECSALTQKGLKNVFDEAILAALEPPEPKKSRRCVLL

Substance	effect of a mutation on the interaction (par6b_mouse Pard6b)	effect of a mutation on the interaction (pak1_human PAK1)
Cell division control protein 42 homolog (Homo sapiens), P60953 D38A	decreasing interaction	decreasing interaction
Cell division control protein 42 homolog (Homo sapiens), P60953 F37A	decreasing interaction	–
Cell division control protein 42 homolog (Homo sapiens), P60953 Y40K	decreasing interaction	decreasing interaction
